Source: article PMC8641065 (The New phytologist, 2021)

Target: T1, HY5-S36A-GFP (Arabidopsis thaliana, UniProt O24646 1-168, S36A)
T1 sequence (looked up): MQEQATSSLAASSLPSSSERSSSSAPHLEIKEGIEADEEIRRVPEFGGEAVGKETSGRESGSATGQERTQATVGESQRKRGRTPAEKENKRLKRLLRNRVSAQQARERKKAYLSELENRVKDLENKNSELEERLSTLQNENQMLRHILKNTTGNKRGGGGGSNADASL
Assay: co-IP

fold of COP1 co-immunoprecipitated, against the HY5-S36D-GFP line: 4 fold
B1: COP1 (constitutive photomorphogenic1), endogenous (natural protein, UniProt P43254 1-675, looked up)
chain: MEEISTDPVVPAVKPDPRTSSVGEGANRHENDDGGSGGSEIGAPDLDKDLLCPICMQIIKDAFLTACGHSFCYMCIITHLRNKSDCPCCSQHLTNNQLYPNFLLDKLLKKTSARHVSKTASPLDQFREALQRGCDVSIKEVDNLLTLLAERKRKMEQEEAERNMQILLDFLHCLRKQKVDELNEVQTDLQYIKEDINAVERHRIDLYRARDRYSVKLRMLGDDPSTRNAWPHEKNQIGFNSNSLSIRGGNFVGNYQNKKVEGKAQGSSHGLPKKDALSGSDSQSLNQSTVSMARKKRIHAQFNDLQECYLQKRRQLADQPNSKQENDKSVVRREGYSNGLADFQSVLTTFTRYSRLRVIAEIRHGDIFHSANIVSSIEFDRDDELFATAGVSRCIKVFDFSSVVNEPADMQCPIVEMSTRSKLSCLSWNKHEKNHIASSDYEGIVTVWDVTTRQSLMEYEEHEKRAWSVDFSRTEPSMLVSGSDDCKVKVWCTRQEASVINIDMKANICCVKYNPGSSNYIAVGSADHHIHYYDLRNISQPLHVFSGHKKAVSYVKFLSNNELASASTDSTLRLWDVKDNLPVRTFRGHTNEKNFVGLTVNSEYLACGSETNEVYVYHKEITRPVTSHRFGSPDMDDAEEEAGSYFISAVCWKSDSPTMLTANSQGTIKVLVLAA
